Reference: patent US20210032351A1 (XDCEXPLORER SHANGHAI, published 2021)
Residue numbers refer to the chain shown, from its start.

B1: Humanized antibody h75G7C6-10 (antibody, human IgG1, V domains shown)
VH: QVQLVQSGAEVKKPGASVKVSCKASGYTFTDYNMDWVRQAPGQGLEWIGDINPNNADTIYNQKFKGRVTLTVDTSTSTVYMELSSLRSEDTAVYYCARGDYDGYYPVYYAMDYWGQGTTVTVSS
VL: ENVLTQSPATLSLSPGERATLSCRASSSVSSSYLHWYQQKPGQAPRLLIFSTSNLAAGIPARFSGSGSGTDYTLTISSLEPEDFAVYYCQQYSGYPLTFGGGTKVEIK
notes: also called VH-g1/VL-g1
B2: Humanized antibody h75G7C6-12 (antibody, human IgG1, V domains shown)
VH: B1 VH
VL: B1 VL with A44S, I59V
notes: also called VH-g1/VL-g3
B3: Humanized antibody h75G7C6-11 (antibody, human IgG1, V domains shown)
VH: B1 VH
VL: B1 VL with A44S
notes: also called VH-g1/VL-g2
B4: Chimeric antibody c63A10A7 (antibody, human IgG1, V domains shown)
VH: QVQLQQSGAELARPGASVKMSCKASGYTFISFTMHWVKQRPGQGLEWIGYINPNSGYTKYNQKFKDKATLTAGQSSSTAYMQLSSLTSEDSAVYYCTRGGGRGFAYWGQGTLVTVSA
VL: DILMTQSPSSMSVSLGDTVTITCHASQDINSNIGWLQQKPGKSFKALIYHGTNLEDGVPSRFSGSGSGADYSLTISSLESEDFADYYCVQYAQFPFTFGSGTKLEIK
notes: also called chimeric antibody 63A10
B5: Humanized antibody h63A10A7-20 (antibody, human IgG1, V domains shown)
VH: QVQLVQSGAEVKKPGASVKVSCKASGYTFISFTMHWVRQAPGQGLEWIGYINPNSGYTKYNQKFKDKATLTRDTSTSTVYMELSSLRSEDTAVYYCTRGGGRGFAYWGQGTLVTVSS
VL: B4 VL with M11L, V13A, L15V, T18R, S72T, E79Q, S80P, D85T, S100Q
notes: Human IgG1 constant region, human kappa constant region
B6: Humanized antibody h63A10A7-18 (antibody, human IgG1, V domains shown)
VH: B5 VH with R38K, A40R, R72A, T74Q, V79A
VL: B4 VL with M11L, V13A, L15V, T18R, S72T, E79Q, S80P, D85T, S100Q
notes: as for B5
B7: Humanized antibody h63A10A7-25 (antibody, human IgG1, V domains shown)
VH: B5 VH with R38K, A40R
VL: B4 VL with M11L, V13A, L15V, T18R, L36Y, S72T, E79Q, S80P, D85T, S100Q
notes: as for B5
B8: Humanized antibody h63A10A7-19 (antibody, human IgG1, V domains shown)
VH: B5 VH with R38K, A40R, I48M, L70M
VL: B4 VL with M11L, V13A, L15V, T18R, S72T, E79Q, S80P, D85T, S100Q
notes: as for B5
B9: Humanized antibody h63A10A7-17 (antibody, human IgG1, V domains shown)
VH: B5 VH with R38K, A40R
VL: B4 VL with M11L, V13A, L15V, T18R, S72T, E79Q, S80P, D85T, S100Q
notes: as for B5
B10: Humanized antibody h63A10A7-22 (antibody, human IgG1, V domains shown)
VH: B5 VH with R38K, A40R
VL: B4 VL with L3Q, M11L, V13A, L15V, T18R, S72T, E79Q, S80P, D85T, S100Q
notes: as for B5
B11: Humanized antibody h63A10A7-24 (antibody, human IgG1, V domains shown)
VH: B5 VH with R38K, A40R
VL: B4 VL with M11L, V13A, L15V, T18R, A69T, S72T, E79Q, S80P, D85T, S100Q
notes: as for B5
B12: Humanized antibody h63A10A7-21 (antibody, human IgG1, V domains shown)
VH: B5 VH with R38K, A40R, K67R, A68V
VL: B4 VL with M11L, V13A, L15V, T18R, S72T, E79Q, S80P, D85T, S100Q
notes: as for B5
B13: Humanized antibody h63A10A7-23 (antibody, human IgG1, V domains shown)
VH: B5 VH with R38K, A40R
VL: DILMTQSPSSLSASVGDRVTITCHASQDINSNIGWLQQKPGKAPKALIYHGTNLEDGVPSRFSGSGSGADYTLTISSLQPEDFATYYCVQYAQFPFTFGQGTKLEIK
notes: as for B5
B14: Humanized antibody h75G7C6-3 (antibody, human IgG1, V domains shown)
VH: B1 VH with Q1E, R38K, T74K
VL: B1 VL with A44S
B15: Humanized antibody h75G7C6-7 (antibody, human IgG1, V domains shown)
VH: B1 VH with I48M, L70M, V72R
VL: B1 VL with A44S
B16: Humanized antibody h75G7C6-6 (antibody, human IgG1, V domains shown)
VH: B1 VH with I48M, L70M, V72R
VL: B1 VL
B17: Humanized antibody h75G7C6-8 (antibody, human IgG1, V domains shown)
VH: B1 VH with I48M, L70M, V72R
VL: B1 VL with A44S, I59V
B18: Humanized antibody h75G7C6-4 (antibody, human IgG1, V domains shown)
VH: B1 VH with Q1E, R38K, T74K
VL: B1 VL with A44S, I59V

Target: T1, human EGFRvIII-hFc protein (human, UniProt P00533 25-645)
T1 construct: extracellular domain; also called immunogen A; hFc-tagged EGFRvIII protein; not shown: human IgG Fc fragment (hFc) of the pCpC vector
Test: ELISA, EGFRvIII-hFc coated
Experimental: The purified humanized anti-EGFRvIII antibody obtained in example 12 is reacted with a human EGFRvIII-hFc protein.
The purified immunogen A (EGFRvIII-hFc) obtained in example 1 (for the preparation method, see step (I) in example 1) is diluted with PBS to a final concentration of 1.0 μg/mL, and then added to a 96-well ELISA plate at 100 μl/well. The plate is sealed with a plastic film and incubated at 4° C. overnight. The next day, the plate is washed twice with a plate washing solution [PBS+0.01% (v/v) Tween20], and added with a blocking solution [PBS+0.01% (v/v) Tween20+1% (w/w) BSA] for blocking 2 hours at room temperature. […] The plate is incubated for 2 hours at 37° C., and then washed 3 times with the plate washing solution [PBS+0.01% (v/v) Tween20]. The plate is added with an HRP (horseradish peroxidase) labeled secondary antibody (purchased from Sigma), incubated at 37° C. for 2 hours, and then washed 3 times with the plate washing solution [PBS+0.01% (v/v) Tween20]. The plate is added with 100 μl of TMB substrate/well, incubated for 30 minutes at room temperature, and then added with 100 μl of stopping solution (1.0N HCl)/well. A450 nm value is read using an ELISA plate reader (SpectraMax 384plus, purchased from Molecular Device).

B1 and B2 are within 1.5-fold of each other in EC50: 0.66 nM for the first, 0.57 nM for the second.

B3 was tested, and the EC50 was 0.67 nM.

Going from B1 to B2, the “Maximum OD450 value” falls from 2.98 OD450 to 2.73 OD450.

In the case of B3, the “Maximum OD450 value” is reported as 2.96 OD450.

Target: T2, wild-type EGFR protein on the surfaces of A431 tumor cells and normal human primary hepatocytes (human, UniProt P00533 25-1210)
T2 construct: whole, on cells; Same protein on two cell types; also called human epidermal growth factor receptor; her-1
Test: FACS, MFI on A431 cells over MFI on normal primary hepatocytes
Experimental: (§1) The preparation of U87MG-EGFRvIII required for FACS detection is as described in the preparation of the immunogen B in example 1. Normal human primary hepatocytes are purchased from BioreclamationIVT, and A431 tumor cells are purchased from ATCC. The recovered hepatocytes are directly used for FACS detection, and the recovered U87MG-EGFRvIII and A431 cells are subjected to an expanded culture to 90% confluence in a T-75 cell culture flask; the medium is sucked out, and the cells are washed twice with a HBSS buffer (Hanks Balanced Salt Solution) (purchased from Invitrogen), and then treated with an enzyme-free cell dissociation solution (Versene solution: purchased from Life Technology) and collected. The cells are washed twice with the HBSS buffer and are counted, and then the cells are diluted with the HBSS buffer to 2×10⁶ cells/ml, added with 1% goat serum blocking solution, with the percentage being the mass percentage, and incubated on ice for 30 minutes, and then centrifugally washed twice with the HBSS buffer. The collected cells are resuspended to 2×10⁶ cells/mL with an FACS buffer (HBSS+2% FBS, with the percentage being the volume percentage), added to a 96-well FACS reaction plate at 100 μL/well, then added with 100 μL/well of the purified EGFRvIII antibody (samples to be tested) obtained in example 12, and incubated on ice for 2 hours. The plate is centrifugally washed twice with the FACS buffer, added with 100 μL/well of a 1:1000 diluted fluorescence (Alexa 488) labeled secondary antibody (purchased from Invitrogen), and incubated on ice for 1 hour. The plate is centrifugally washed 3 times with the FACS buffer, added with 100 μL/well of a fixing solution [4% (v/v) paraformaldehyde] to resuspend the cells, and centrifugally washed twice with the FACS buffer after 10 minutes. The cells are resuspended in 100 μL of the FACS buffer, and the results are detected and analyzed by FACS (FACS Calibur, purchased from BD). Data analysis is performed by using the software (CellQuest) to obtain the mean fluorescence intensity (MFI) of the cells. Data is further analyzed by using the software (GraphPad Prism5) to perform data fitting and calculate EC50.

Going from B4 to B5, the “Selective window (MFIA431/Hepatocytes)” value falls from 15.8 ratio to 15.4 ratio.

Going from B6 to B7, the “Selective window (MFIA431/Hepatocytes)” value rises from 16.5 ratio to 17 ratio.

Going from B8 to B9, the “Selective window (MFIA431/Hepatocytes)” value rises from 8.7 ratio to 15.6 ratio.

First: B10
Second: B11
The “Selective window (MFIA431/Hepatocytes)” value of the first is lower: 15.8 ratio for the first, 19.6 ratio for the second.

Going from B12 to B13, the “Selective window (MFIA431/Hepatocytes)” value falls from 14 ratio to 6 ratio.

Target: human EGFRvIII protein on the cell surface (human) (UniProt P00533)
Test: FACS on U87MG-EGFRvIII cells

B14 and B15 are within 1.5-fold of each other in EC50: 5.6 nM for the first, 5.74 nM for the second.

Compared with B16, B17 is 1.9-fold higher in EC50: 5.96 nM for the first, 11.6 nM for the second. The first is the more potent here.

In the case of B18, the EC50 is reported as 5.57 nM.

Compared with B14, B15 is lower in Maximum mean fluorescence intensity: 18600 MFI for the first, 17200 MFI for the second.

First: B16
Second: B17
The Maximum mean fluorescence intensity of the first is lower: 17100 MFI for the first, 17600 MFI for the second.

With B18 the Maximum mean fluorescence intensity was 18700 MFI.

Target: T3, human EGFRvIII protein on the cell surface (human, UniProt P00533 25-1210)
T3 construct: whole, on cells; the cell line is named under assay; also called hEGFRvIII; U87MG-hEGFRvIII
Test: FACS on U87MG-EGFRvIII cells
Experimental: as §1

B1 and B2 are within 1.5-fold of each other in EC50: 5.32 nM for the first, 5.2 nM for the second.

B3 gave an EC50 of 5.11 nM.

Compared with B1, B2 is lower in “Maximum mean fluorescence intensity” value: 18000 MFI for the first, 17800 MFI for the second.

In the case of B3, the “Maximum mean fluorescence intensity” value is reported as 17600 MFI.

Target: T2, wild-type EGFR protein on the surfaces …
Test: FACS, normal human primary hepatocytes
Experimental: as §1

First: B4
Second: B5
The “mean fluorescence intensity (MFI)” value of the first is lower: 299 MFI for the first, 486 MFI for the second.

First: B6
Second: B7
The “mean fluorescence intensity (MFI)” value of the first is higher: 553 MFI for the first, 433 MFI for the second.

Compared with B8, B9 is higher in “mean fluorescence intensity (MFI)” value: 439 MFI for the first, 677 MFI for the second.

First: B10
Second: B11
The “mean fluorescence intensity (MFI)” value of the first is higher: 592 MFI for the first, 502 MFI for the second.

Compared with B12, B13 is higher in “mean fluorescence intensity (MFI)” value: 568 MFI for the first, 661 MFI for the second.

Target: T2, wild-type EGFR protein on the surfaces …
Test: FACS, A431 tumor cells
Experimental: as §1

Compared with B4, B5 is higher in “mean fluorescence intensity (MFI)” value: 4730 MFI for the first, 7460 MFI for the second.

Compared with B6, B7 is lower in “mean fluorescence intensity (MFI)” value: 9140 MFI for the first, 7360 MFI for the second.

First: B8
Second: B9
The “mean fluorescence intensity (MFI)” value of the first is lower: 3830 MFI for the first, 10600 MFI for the second.

Going from B10 to B11, the “mean fluorescence intensity (MFI)” value rises from 9380 MFI to 9860 MFI.

Going from B12 to B13, the “mean fluorescence intensity (MFI)” value falls from 7930 MFI to 4000 MFI.

Target: human EGFRvIII-hFc protein (human) (UniProt P00533)
Test: ELISA, EGFRvIII-hFc coated

Compared with B14, B15 is 2.2-fold higher in EC50: 0.51 nM for the first, 1.1 nM for the second.

First: B16
Second: B17
The EC50 of the first is 2.9-fold lower: 0.68 nM for the first, 2 nM for the second. The first is the more potent here.

Work on B18 yielded an EC50 of 0.45 nM.

Going from B14 to B15, the Maximum OD450 value falls from 3.44 OD450 to 2.97 OD450.

Compared with B16, B17 is lower in Maximum OD450 value: 3.2 OD450 for the first, 2.72 OD450 for the second.

Work on B18 yielded a Maximum OD450 value of 3.37 OD450.
